Source: publication PMC6491607, “4-Coumarate 3-hydroxylase in the lignin biosynthesis pathway is a cytosolic ascorbate peroxidase” (Nature Communications, 2019)

Legend:
[1] = substrate: O=C(O)/C=C/c1ccc(O)cc1; test: HPLC of product, Hill fit; assay type: biochemical, Arabidopsis thaliana; conditions: H2O2 co-substrate, ascorbate 4 mM, sodium phosphate pH 6, 30 °C, hemin reconstituted
[2] = substrate: N[C@@H](Cc1ccc(O)cc1)C(=O)O; test: HPLC of product (L-DOPA), Hill fit; assay type: biochemical, Arabidopsis thaliana; conditions: H2O2 co-substrate, ascorbate 4 mM, sodium phosphate pH 6, 30 °C, hemin reconstituted
purified protein = substrate: O=C1O[C@H]([C@@H](O)CO)C(O)=C1O; test: purified protein; conditions: H2O2 co-substrate, sodium phosphate pH 6, hemin reconstituted

B1: Arabidopsis C3H (4-coumarate 3-hydroxylase; cytosolic ascorbate peroxidase APX1) (Arabidopsis thaliana) (protein)
chain: MTKNYPTVSEDYKKAVEKCRRKLRGLIAEKNCAPIMVRLAWHSAGTFDCQSRTGGPFGTMRFDAEQAHGANSGIHIALRLLDPIREQFPTISFADFHQLAGVVAVEVTGGPDIPFHPGREDKPQPPPEGRLPDATKGCDHLRDVFAKQMGLSDKDIVALSGAHTLGRCHKDRSGFEGAWTSNPLIFDNSYFKELLSGEKEGLLQLVSDKALLDDPVFRPLVEKYAADEDAFFADYAEAHMKLSELGFADA
notes: full-length cDNA in pDEST17, N-terminal 6xHis tag kept, E. coli Rosetta, Ni-NTA purified, hemin reconstituted
K0.5 [1]: 708 ± 154 µM
kcat [1]: 492 s–1
K0.5 [2]: 653 ± 127 µM
kcat [2]: 599 s–1
K0.5 (purified protein): 299 ± 63 µM
kcat (purified protein): 181 s–1
